Measured values: patent publication US20090226372A1 (SANFORD BURNHAM MEDICAL RESEARCH INSTITUTE, published 2009)

B1: T7 phage displaying RPARPARA (SEQ ID NO:3) (peptide)
chain: RPARPARA
notes: not shown: T7 bacteriophage major coat protein gp10 (T7-select display system); Limits
B2: T7 phage displaying RPARPAR (SEQ ID NO:2) (peptide)
chain: RPARPAR
notes: also called RPARPAR phage; RPARPAR T7; not shown: T7 bacteriophage major coat protein gp10 (T7-select display system); Limits

Assays:
[1] = biological target: T1, wild-type NRP-1 expressed on transiently transfected M21 melanoma cells (UniProt O14786 22-923); assay: phage incubated with M21 cells transiently transfected with NRP-1, immunostaining and confocal imaging
T1 construct: whole, on cells; the printed SKET at 346-349 fits human NRP-1; also called wild type NRP-1 cDNA in pcDNA3.1(+)
T1 sequence (O14786 22-923 limits assumed): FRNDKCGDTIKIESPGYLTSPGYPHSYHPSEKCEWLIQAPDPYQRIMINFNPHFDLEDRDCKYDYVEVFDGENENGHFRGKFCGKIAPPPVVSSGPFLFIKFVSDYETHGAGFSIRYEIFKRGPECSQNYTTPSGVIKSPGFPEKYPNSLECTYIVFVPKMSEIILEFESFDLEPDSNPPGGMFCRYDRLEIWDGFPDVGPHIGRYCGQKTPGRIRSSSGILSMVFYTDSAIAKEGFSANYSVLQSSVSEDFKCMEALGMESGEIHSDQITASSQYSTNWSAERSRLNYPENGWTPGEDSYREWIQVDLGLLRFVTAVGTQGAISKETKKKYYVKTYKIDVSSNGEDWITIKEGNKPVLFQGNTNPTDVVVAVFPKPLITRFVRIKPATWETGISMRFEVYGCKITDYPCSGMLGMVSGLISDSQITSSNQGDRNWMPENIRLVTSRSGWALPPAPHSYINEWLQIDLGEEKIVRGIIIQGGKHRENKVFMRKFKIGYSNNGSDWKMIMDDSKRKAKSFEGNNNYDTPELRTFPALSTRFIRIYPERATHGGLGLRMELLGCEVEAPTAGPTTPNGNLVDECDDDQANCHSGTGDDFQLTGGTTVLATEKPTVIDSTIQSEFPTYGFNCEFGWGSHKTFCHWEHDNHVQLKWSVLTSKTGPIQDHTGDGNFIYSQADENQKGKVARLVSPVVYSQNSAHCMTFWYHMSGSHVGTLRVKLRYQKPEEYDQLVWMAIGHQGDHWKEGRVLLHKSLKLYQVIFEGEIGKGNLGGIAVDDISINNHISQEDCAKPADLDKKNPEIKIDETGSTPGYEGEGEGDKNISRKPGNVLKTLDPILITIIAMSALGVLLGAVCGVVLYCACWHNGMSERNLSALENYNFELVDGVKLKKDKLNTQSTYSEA

[2] = biological target: T2, triple mutant S346A-E348A-T349A NRP-1 expressed on transiently transfected M21 melanoma cells (UniProt O14786 22-923, limits assumed); assay: phage binding to transiently transfected M21 melanoma cells, titration
T2 construct: whole, on cells; The stated codon change SKET to AKAA gives T349A; also called Mutant NRP-1

Binder	binding result [1]	binding result [2]
B1	no binding	
B2		no binding
